Results taken from patent publication US20250313644A1 (FUTUREGEN BIOPHARMACEUTICAL BEIJING, published 2025).
Changes are numbered by the printed parent chain. Where two headings read alike, the source gives them in different places.

Tests used:
[1] = target: T1, HuTL1A mutant V102A (mutant number 4139) (human, UniProt O95150 57-251, limits assumed); test: BLI (Gator) on antigen mutant V102A
T1 construct: whole entry named
T1 chain: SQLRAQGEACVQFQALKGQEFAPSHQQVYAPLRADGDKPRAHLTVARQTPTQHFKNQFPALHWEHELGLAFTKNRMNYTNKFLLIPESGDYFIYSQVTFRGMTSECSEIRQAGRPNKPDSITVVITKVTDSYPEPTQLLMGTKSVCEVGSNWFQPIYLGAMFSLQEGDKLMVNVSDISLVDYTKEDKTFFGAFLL

[2] = target: T2, HuTL1A mutant E120A (mutant number 4138) (human, UniProt O95150 57-251, limits assumed); test: BLI (Gator) on antigen mutant E120A
T2 construct: whole entry named
T2 chain: T1 chain with A46V, E64A

human TL1A (HuTL1A) [3] = target: T3, human TL1A (HuTL1A) (human, UniProt O95150 57-251, limits assumed, biotin-labelled in some assays (site not stated)); test: BLI (Gator) on WT antigen (3907)
T3 construct: Expressed in EXPI-293 cells and purified by Ni-NTA (His-tag); Described as a trimeric antigen; also called TL1A antigen; WT
T3 sequence: T1 chain with A46V

human TL1A (HuTL1A) [4] = target: T3, human TL1A (HuTL1A); test: ELISA: biotin-HuTL1A on streptavidin plate, antibody diluted at pH 7.4, HRP-anti-human Fc, OD450
Procedure: (§1) Corresponding antibodies were added to specific wells, and the antibodies were diluted with sodium dihydrogen phosphate-citrate buffer at pH 7.4, pH 6.0, pH 5.8, or pH 5.6. Binding assay was carried out at room temperature for 30 minutes. After the incubation, the excess antibodies were removed and the wells were washed by PBST. HRP-anti-Human Fc (Sino Biological) was then added into each well and incubated for 30 minutes to detect the bound antibody. The substrate TMB was finally added to develop color for 5-10 minutes. The color development reaction was terminated with 1M sulfuric acid. OD450 nm was recorded on a microplate reader, and the data were processed and fitted by 4 parameter logistic regression.

[5] = target: T4, HuTL1A mutant T239A (mutant number 4135) (human, UniProt O95150 57-251, limits assumed); test: BLI (Gator) on antigen mutant T239A
T4 construct: whole entry named
T4 chain: T1 chain with A46V, T183A

human TL1A (HuTL1A) [6] = target: T3, human TL1A (HuTL1A); test: BLI (Gator), biotin-HuTL1A on SA probe, pH 7.4; BLI (Gator), pH 7.4
Procedure: The binding kinetics between monoclonal antibodies and antigens was measured using Gator, a label-free biomolecule interaction analyzer based on the principle of biolayer interference (BLI). […] Then a serial dilutions of single-arm M701 antibodies and control antibodies were added. The antibodies interacted with the antigen captured by the SA probe, and the interaction was analyzed by detecting the signal change of the reflection interference spectrum of the probe surface, and finally the binding kinetics constants of the antibodies were calculated. The kinetic constants of antigen and antibodies were measured at pH 7.4 and 5.6 in sodium dihydrogen phosphate-citrate buffer.

human TL1A (HuTL1A) [7] = target: T3, human TL1A (HuTL1A); test: ELISA: biotin-HuTL1A on streptavidin plate, antibody diluted at pH 7.4, HRP-anti-human Fc, OD450; remark: listed apart in the source
Procedure: as §1

[8] = target: T5, HuTL1A mutant T105A (mutant number 4140) (human, UniProt O95150 57-251, limits assumed); test: BLI (Gator) on antigen mutant T105A
T5 construct: whole entry named
T5 chain: T1 chain with A46V, T49A

[9] = target: T6, HuTL1A mutant S234A (mutant number 4133) (human, UniProt O95150 57-251, limits assumed); test: BLI (Gator) on antigen mutant S234A
T6 construct: whole entry named
T6 chain: T1 chain with A46V, S178A

[10] = target: T7, HuTL1A mutant H118A (mutant number 4137) (human, UniProt O95150 57-251, limits assumed); test: BLI (Gator) on antigen mutant H118A
T7 construct: whole entry named
T7 chain: T1 chain with A46V, H62A

[11] = target: T8, cynomolgus monkey/rhesus monkey TL1A (cynomolgus monkey/rhesus monkey); test: BLI (Gator), His-tagged TL1A on anti-His probe, pH 7.4
T8 construct: also called Cynomolgus/rhesus monkey TL1A
Procedure: (§2) Then a serial dilutions of single-arm M701 antibodies and control antibodies were added.

human TL1A (HuTL1A) [12] = target: T3, human TL1A (HuTL1A); test: as above
Procedure: as §2

[13] = target: T9, HuTL1A mutant K240A (mutant number 4136) (human, UniProt O95150 57-251, limits assumed); test: BLI (Gator) on antigen mutant K240A
T9 construct: whole entry named
T9 chain: T1 chain with A46V, K184A

[14] = target: T10, HuTL1A mutant Y238A (mutant number 4134) (human, UniProt O95150 57-251, limits assumed); test: BLI (Gator) on antigen mutant Y238A
T10 construct: whole entry named
T10 chain: T1 chain with A46V, Y182A

Kd [1]: 5850 nM
Kd [2]: 17.3 nM
Kd (human TL1A (HuTL1A) [3]): 8.39 nM
EC50 (read off the curve) (human TL1A (HuTL1A) [4]): ~0.6 nM
Kd [5]: 11.6 nM
Kd (human TL1A (HuTL1A) [6]): 5.62 nM
koff (human TL1A (HuTL1A) [6]): 0.00214 s⁻¹
kon (human TL1A (HuTL1A) [6]): 381000 M⁻¹ s⁻¹
EC50 (read off the curve) (human TL1A (HuTL1A) [7]): ~0.6 nM
Kd [8]: 6.65 nM
Kd [9]: 7.82 nM
Kd [10]: 7.73 nM
Kd [11]: 6.09 nM
koff [11]: 0.00375 s⁻¹
kon [11]: 616000 M⁻¹ s⁻¹
Kd (human TL1A (HuTL1A) [12]): 5.92 nM
koff (human TL1A (HuTL1A) [12]): 0.00353 s⁻¹
kon (human TL1A (HuTL1A) [12]): 596000 M⁻¹ s⁻¹
Kd [13]: 8.15 nM
Kd [14]: 12100 nM
B1: single-arm antibody M701-3973 (antibody, human IgG1, kappa, L234A L235A)
heavy: ELQLQESGPGLVKPSETLSLTCAVSGVSFSDYHWAWIRQPPGKGLEWIGDINHRGHTNYNPSLKSRVTVSIDTSKNQFSLKLSSVTAADTAVYFCARDFPNFIFDFWGQGTLVTVSSASTKGPSVFPLAPSSKSTSGGTAALGCLVKDYFPEPVTVSWNSGALTSGVHTFPAVLQSSGLYSLSSVVTVPSSSLGTQTYICNVNHKPSNTKVDKKVEPKSCDKTHTCPPCPAPEAAGGPSVFLFPPKPKDTLMISRTPEVTCVVVDVSHEDPEVKFNWYVDGVEVHNAKTKPREEQYNSTYRVVSVLTVLHQDWLNGKEYKCKVSNKALGAPIEKTISKAKGQPREPQVYTLPPCREEMTKNQVSLWCLVKGFYPSDIAVEWESNGQPENNYKTTPPVLDSDGSFFLYSKLTVDKSRWQQGNVFSCSVMHEALHNHYTQKSLSLSPG
light: not shown
chain: DKTHTCPPCPAPEAAGGPSVFLFPPKPKDTLMISRTPEVTCVVVDVSHEDPEVKFNWYVDGVEVHNAKTKPREEQYNSTYRVVSVLTVLHQDWLNGKEYKCKVSNKALGAPIEKTISKAKGQPREPQVCTLPPSREEMTKNQVSLSCAVKGFYPSDIAVEWESNGQPENNYKTTPPVLDSDGSFFLVSKLTVDKSRWQQGNVFSCSVMHEALHNHYTQKSLSLSPG
